Experiments:
[1] = biological target: huPA-H99Y (full length human urokinase-type plasminogen activator with H99Y) (human); test: enzyme inhibition (steady state, chromogenic substrate S-2444); about 2 nM enzyme (purified or conditioned medium of transfected cells) pre-incubated 15 min with varied peptide in HBS (10 mM HEPES pH 7.4, 140 mM NaCl) with 0.1% BSA at 37°C; substrate about KM; fit for competitive inhibition; highest peptide concentration 400 µM
[2] = biological target: huPA-H99Y (full length human urokinase-type plasminogen activator with H99Y) (human); test: SPR; Biacore T200; uPA variant amine-coupled to a CM5 chip (about 500 RU); peptides injected in HBS with 0.1% BSA, 30 µL/min, 25°C, pH 7.4; 1:1 kinetic fit; KD = koff/kon
[3] = biological target: huPA-H99Y-Q192A (human); test: enzyme inhibition (steady state, chromogenic substrate S-2444); about 2 nM enzyme (purified or conditioned medium of transfected cells) pre-incubated 15 min with varied peptide in HBS (10 mM HEPES pH 7.4, 140 mM NaCl) with 0.1% BSA at 37°C; substrate about KM; fit for competitive inhibition; highest peptide concentration 400 µM
[4] = biological target: huPA-H99Y-K143A (human); test: as above
[5] = biological target: huPA-H99Y-V41A (human); test: as above
[6] = biological target: huPA-H99Y-R35A (human); test: as above
[7] = biological target: recombinant catalytic domain of huPA-H99Y (residues 159-411) (human) (UniProt P00749); test: ITC; MicroCal ITC200; peptide injected into 5-50 µM huPA-H99Y catalytic domain; 20 mM sodium phosphate pH 7.4, 140 mM NaCl, 25°C; one-binding-site model

Substance: Mupain-1 P2A (peptide)
- Ki [1]: > 1000 µM

Substance: Mupain-1 R6A (peptide)
- Ki [1]: > 1000 µM

Substance: Mupain-1 D9A (peptide)
- Kd [2]: 1.41 µM
- koff [2]: 0.366 s⁻¹
- kon [2]: 260000 M⁻¹ s⁻¹
- Ki [3]: 4.85 µM
- Ki [1]: 5.99 µM
- Ki [4]: 8.74 µM
- Ki [5]: 7.2 µM
- Ki [6]: 2.68 µM
- Kd [7]: 1.17 µM
- dH [7]: -9.06 kcal/mol
- stoichiometry N [7]: 1.03

Substance: Mupain-1 Y4A (peptide)
- Ki [1]: > 1000 µM

Substance: Mupain-1 S5A (peptide)
- Ki [1]: > 1000 µM

Substance: Mupain-1 Y7A (peptide)
- Ki [1]: 44 µM

Substance: mupain-1 (peptide)
- Kd [2]: 14.1 µM
- koff [2]: 0.802 s⁻¹
- kon [2]: 56900 M⁻¹ s⁻¹
- Ki [3]: 33.2 µM
- Ki [4]: 56.6 µM
- Ki [5]: 32.4 µM
- Ki [6]: 39.5 µM
- Kd [7]: 5.04 µM
- dH [7]: -8.72 kcal/mol
- stoichiometry N [7]: 1.09

Substance: Mupain-1 L8A (peptide)
- Ki [1]: 19.1 µM
